Source: article PMC13544220, “Glycemic and bodyweight effects of GIPR coding variation reflect differences in surface expression and intrinsic functional impairment” (Science Advances, 2026)

Columns and labels:
Assay type in all cases: cell-based, human
[1] = system: wild-type and variant SNAP-GIPR; experiment: Surface SNAP-GIPR expression (SNAP-tag labelling) in INS-1 cells; conditions: Fig 4G; Mean
Method in brief: (§1)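 Read-out: whole-cell fluorescence of surface-only SNAP label (Alexa Fluor 647, 500 nM, 10 min, RT), wide-field 20X, several FOVs per well. Flat-field corrected, phase-contrast masked, nontransfected-well signal subtracted; normalized to experiment mean or wild-type.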

[2] = system: wild-type and variant SNAP-GIPR; experiment: Constitutive and agonist-mediated internalization, reversible SNAP-tag labelling, AD293 cells; set-up: key to Internalisation, Vehicle / Internalisation, +GIP / Internalisation, GIP-only: % internalization: residual fluorescence after Mesna vs pre-Mesna; Surface expression: unit not given here; conditions: Mean; for +GIP internalisation (100 nM) / GIP-specific internalisation (100 nM) / Constitutive internalisation (100 nM) / Surface expression: Fig 4E; for +GIP internalisation (100 nM) / GIP-specific internalisation (100 nM): GIP 100 nM; for Internalisation, +GIP / Internalisation, GIP-only / Internalisation, Vehicle: Fig S4C, AD293
Method in brief: (§2)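 Percentage internalization calculated as specific SNAP fluorescence remaining after 10 min Mesna exposure, relative to pre-Mesna signal, imaged in TNE buffer (pH 8.6).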

[3] = system: wild-type and variant SNAP-GIPR; experiment: Single-concentration GIP cAMP response by HTRF in AD293 cells; conditions: Fig S3F, HTRF, mean;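 further: ratio to experiment-wide average response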
Protocol: (§3) All variants were tested in parallel on each occasion to control for transfection efficiency differences between experiments.

[4] = system: wild-type and variant SNAP-GIPR; experiment: Constitutive and agonist-mediated internalization, reversible SNAP-tag labelling, INS-1 cells; set-up: key to Internalisation, GIP-only / Internalisation, Vehicle / Internalisation, +GIP: % internalization: residual fluorescence after Mesna vs pre-Mesna; conditions: Mean; for +GIP internalisation (100 nM) / GIP-specific internalisation (100 nM) / Constitutive internalisation (100 nM): Fig 4G; for +GIP internalisation (100 nM) / GIP-specific internalisation (100 nM): GIP 100 nM; for Internalisation, +GIP / Internalisation, GIP-only / Internalisation, Vehicle: Fig S4C, INS-1
Method in brief: as §2

[5] = system: wild-type and variant SNAP-GIPR; experiment: Single-concentration GIP cAMP response by HTRF in INS-1 cells; conditions: Fig S3E, mean
Protocol: as §3

[6] = system: wild-type and variant SNAP-GIPR; experiment: cADDis cAMP imaging in AD293 cells, ensemble, expression-matched and per decile; conditions: Fig S3F, cADDis, mean;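 further: Ensemble cells as % of IBMX/FSK response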
Method in brief: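 Surface GIPR and cAMP are measured in individual AD293 cells coexpressing SNAP-tagged receptor and the green cADDis biosensor, imaged live at 37°C. Responses are reported ensemble, expression-matched against wild-type deciles with extremes trimmed, or within each variant's own surface deciles.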

[7] = system: wild-type and variant SNAP-GIPR; experiment: Surface SNAP-GIPR expression (SNAP-tag labelling) in AD293 cells; conditions: for AD293 Surface: Fig S3E, mean; for Surface SNAP-GIPR expression: sheet Fig 1C;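 on all read-outs here: scaled to the experimental average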
Method in brief: as §1

[8] = column repeated, paired with cAMP 100 nM

B1: L100F (protein, UniProt P48546 22-466, looked up, variant L100F)
Gastric inhibitory …: RAETGSKGQTAGELYQRWERYRRECQETLAAAEPPSGLACNGSFDMYVCWDYAAPNATARASCPWYLPWHHHVAAGFVFRQCGSDGQWGLWRDHTQCENPEKNEAFLDQRLILERLQVMYTVGYSLSLATLLLALLILSLFRRLHCTRNYIHINLFTSFMLRAAAILSRDRLLPRPGPYLGDQALALWNQALAACRTAQIVTQYCVGANYTWLLVEGVYLHSLLVLVGGSEEGHFRYYLLLGWGAPALFVIPWVIVRYLYENTQCWERNEVKAIWWIIRTPILMTILINFLIFIRILGILLSKLRTRQMRCRDYRLRLARSTLTLVPLLGVHEVVFAPVTEEQARGALRFAKLGFEIFLSSFQGFLVSVLYCFINKEVQSEIRRGWHHCRLRRSLGEEQRQLPERAFRALPSGSGPGEVPTSRGLSSGTLPGPGNEASRELESYC
Surface expression [1]: 1.643
+GIP internalisation (100 nM) [2]: 0.8469
GIP-specific internalisation (100 nM) [2]: 0.2452
Constitutive internalisation (100 nM) [2]: 0.6017
Surface expression [2]: 1.442
Internalisation, +GIP [2]: 58.6424
Internalisation, GIP-only [2]: 16.9646
Internalisation, Vehicle [2]: 41.6779
AD293 100 pM HTRF [3]: 1.607
AD293 100 nM HTRF [3]: 1.598
+GIP internalisation (100 nM) [4]: 0.7901
GIP-specific internalisation (100 nM) [4]: 0.1883
Constitutive internalisation (100 nM) [4]: 0.6018
Internalisation, +GIP [4]: 47.6567
Internalisation, GIP-only [4]: 11.2267
Internalisation, Vehicle [4]: 36.43
INS-1 cAMP (100 nM) [5]: 1.416
AD293 100 pM cADDis [6]: 37.4091
AD293 100 nM cADDis [6]: 36.85
AD293 Surface [7, 8]: 1.501
AD293 Surface ([7]; paired with cAMP 100 pM): 1.501
Surface SNAP-GIPR expression ([7]; replicate 1): 1.524
Surface SNAP-GIPR expression ([7]; replicate 2): 1.675
Surface SNAP-GIPR expression ([7]; replicate 3): 1.679
Surface SNAP-GIPR expression ([7]; replicate 4): 1.13
Surface SNAP-GIPR expression ([7]; replicate 5): 1.597
Surface SNAP-GIPR expression ([7]; replicate 6): 1.532
Surface SNAP-GIPR expression ([7]; replicate 7): 1.271
Surface SNAP-GIPR expression ([7]; replicate 8): 1.313
Surface SNAP-GIPR expression ([7]; replicate 9): 1.282
Surface SNAP-GIPR expression ([7]; replicate 10): 1.519
Surface SNAP-GIPR expression ([7]; replicate 11): 1.303
Surface SNAP-GIPR expression ([7]; replicate 12): 1.295
Surface SNAP-GIPR expression ([7]; replicate 13): 1.669
Surface SNAP-GIPR expression ([7]; replicate 14): 1.299
Surface SNAP-GIPR expression ([7]; replicate 15): 1.522
Surface SNAP-GIPR expression ([7]; replicate 16): 1.442
Surface SNAP-GIPR expression ([7]; replicate 17): 1.643
Surface SNAP-GIPR expression ([7]; replicate 18): 1.736
Surface SNAP-GIPR expression ([7]; replicate 19): 1.668
Surface SNAP-GIPR expression ([7]; replicate 20): 1.712
Surface SNAP-GIPR expression ([7]; replicate 21): 1.622
Surface SNAP-GIPR expression ([7]; replicate 22): 1.675
Surface SNAP-GIPR expression ([7]; replicate 23): 1.531
Surface SNAP-GIPR expression ([7]; replicate 24): 1.559
Surface SNAP-GIPR expression ([7]; replicate 25): 1.328
Surface SNAP-GIPR expression ([7]; replicate 26): 1.878
Surface SNAP-GIPR expression ([7]; replicate 27): 1.259
Surface SNAP-GIPR expression ([7]; replicate 28): 1.697
Surface SNAP-GIPR expression ([7]; replicate 29): 1.401
Surface SNAP-GIPR expression ([7]; replicate 30): 1.456
Surface SNAP-GIPR expression ([7]; replicate 31): 1.661
Surface SNAP-GIPR expression ([7]; replicate 32): 1.58
Surface SNAP-GIPR expression ([7]; replicate 33): 1.459
Surface SNAP-GIPR expression ([7]; replicate 34): 1.249
Surface SNAP-GIPR expression ([7]; replicate 35): 1.682
Surface SNAP-GIPR expression ([7]; replicate 36): 1.611
Surface SNAP-GIPR expression ([7]; replicate 37): 1.381
Surface SNAP-GIPR expression ([7]; replicate 38): 1.301
Surface SNAP-GIPR expression ([7]; replicate 39): 1.418
Surface SNAP-GIPR expression ([7]; replicate 40): 1.406
Surface SNAP-GIPR expression ([7]; replicate 41): 1.553

B2: A207V (protein)
chain: RAETGSKGQTAGELYQRWERYRRECQETLAAAEPPSGLACNGSFDMYVCWDYAAPNATARASCPWYLPWHHHVAAGFVLRQCGSDGQWGLWRDHTQCENPEKNEAFLDQRLILERLQVMYTVGYSLSLATLLLALLILSLFRRLHCTRNYIHINLFTSFMLRAAAILSRDRLLPRPGPYLGDQALVLWNQALAACRTAQIVTQYCVGANYTWLLVEGVYLHSLLVLVGGSEEGHFRYYLLLGWGAPALFVIPWVIVRYLYENTQCWERNEVKAIWWIIRTPILMTILINFLIFIRILGILLSKLRTRQMRCRDYRLRLARSTLTLVPLLGVHEVVFAPVTEEQARGALRFAKLGFEIFLSSFQGFLVSVLYCFINKEVQSEIRRGWHHCRLRRSLGEEQRQLPERAFRALPSGSGPGEVPTSRGLSSGTLPGPGNEASRELESYC
Surface expression [1]: 1.239
+GIP internalisation (100 nM) [2]: 0.7742
GIP-specific internalisation (100 nM) [2]: 0.2212
Constitutive internalisation (100 nM) [2]: 0.553
Surface expression [2]: 1.34
Internalisation, +GIP [2]: 58.1109
Internalisation, GIP-only [2]: 16.6766
Internalisation, Vehicle [2]: 41.4343
AD293 100 pM HTRF [3]: 1.772
AD293 100 nM HTRF [3]: 1.3964
+GIP internalisation (100 nM) [4]: 0.5824
GIP-specific internalisation (100 nM) [4]: 0.1595
Constitutive internalisation (100 nM) [4]: 0.4229
Internalisation, +GIP [4]: 49.74
Internalisation, GIP-only [4]: 13.34
Internalisation, Vehicle [4]: 36.4
INS-1 cAMP (100 nM) [5]: 1.4138
AD293 100 pM cADDis [6]: 35.8816
AD293 100 nM cADDis [6]: 38.26
AD293 Surface [7, 8]: 1.462
AD293 Surface ([7]; paired with cAMP 100 pM): 1.462
Surface SNAP-GIPR expression ([7]; replicate 1): 1.611
Surface SNAP-GIPR expression ([7]; replicate 2): 2.305
Surface SNAP-GIPR expression ([7]; replicate 3): 1.718
Surface SNAP-GIPR expression ([7]; replicate 4): 1.422
Surface SNAP-GIPR expression ([7]; replicate 5): 1.389
Surface SNAP-GIPR expression ([7]; replicate 6): 1.632
Surface SNAP-GIPR expression ([7]; replicate 7): 1.104
Surface SNAP-GIPR expression ([7]; replicate 8): 1.459
Surface SNAP-GIPR expression ([7]; replicate 9): 1.373
Surface SNAP-GIPR expression ([7]; replicate 10): 1.394
Surface SNAP-GIPR expression ([7]; replicate 11): 1.581
Surface SNAP-GIPR expression ([7]; replicate 12): 1.452
Surface SNAP-GIPR expression ([7]; replicate 13): 1.286
Surface SNAP-GIPR expression ([7]; replicate 14): 1.785
Surface SNAP-GIPR expression ([7]; replicate 15): 1.758
Surface SNAP-GIPR expression ([7]; replicate 16): 1.437
Surface SNAP-GIPR expression ([7]; replicate 17): 1.378
Surface SNAP-GIPR expression ([7]; replicate 18): 1.497
Surface SNAP-GIPR expression ([7]; replicate 19): 1.272
Surface SNAP-GIPR expression ([7]; replicate 20): 1.519
Surface SNAP-GIPR expression ([7]; replicate 21): 1.502
Surface SNAP-GIPR expression ([7]; replicate 22): 1.331
Surface SNAP-GIPR expression ([7]; replicate 23): 1.374
Surface SNAP-GIPR expression ([7]; replicate 24): 1.462
Surface SNAP-GIPR expression ([7]; replicate 25): 1.289
Surface SNAP-GIPR expression ([7]; replicate 26): 1.598
Surface SNAP-GIPR expression ([7]; replicate 27): 1.353
Surface SNAP-GIPR expression ([7]; replicate 28): 1.177
Surface SNAP-GIPR expression ([7]; replicate 29): 1.377
Surface SNAP-GIPR expression ([7]; replicate 30): 1.555
Surface SNAP-GIPR expression ([7]; replicate 31): 1.582
Surface SNAP-GIPR expression ([7]; replicate 32): 1.61
Surface SNAP-GIPR expression ([7]; replicate 33): 1.695
Surface SNAP-GIPR expression ([7]; replicate 34): 1.496
Surface SNAP-GIPR expression ([7]; replicate 35): 1.543
Surface SNAP-GIPR expression ([7]; replicate 36): 1.703
Surface SNAP-GIPR expression ([7]; replicate 37): 1.143
Surface SNAP-GIPR expression ([7]; replicate 38): 1.04
Surface SNAP-GIPR expression ([7]; replicate 39): 1.054
Surface SNAP-GIPR expression ([7]; replicate 40): 1.392
Surface SNAP-GIPR expression ([7]; replicate 41): 1.284
